Experimental data reported in PMC9608196.

Key:
[1] = molecular target: His6-tagged full-length gp24 (tail fiber protein of myocyanophage Pam3) (cyanophage Pam3); assay: SEC-MALS; Superdex 200 Increase 10/300 GL in 20 mM Tris-HCl pH 7.0, 100 mM NaCl, 7 mM beta-mercaptoethanol; 1 mg/mL, 100 uL
[2] = molecular target: His6-tagged full-length gp25 (tail fiber chaperone of myocyanophage Pam3), expressed alone (cyanophage Pam3); assay: SEC; individually expressed His-gp24 or His-gp25; Superdex 200 Increase 10/300 column; peaks analysed by SDS-PAGE
[3] = molecular target: His6-tagged full-length gp24 (tail fiber protein of myocyanophage Pam3) (cyanophage Pam3); assay: SDS-PAGE of samples that were not boiled; purified protein treated with beta-mercaptoethanol, not boiled
[4] = molecular target: His6-tagged full-length gp24 (tail fiber protein of myocyanophage Pam3) (cyanophage Pam3); assay: SEC; individually expressed His-gp24 or His-gp25; Superdex 200 Increase 10/300 column; peaks analysed by SDS-PAGE
[5] = molecular target: His6-tagged full-length gp24 (tail fiber protein of myocyanophage Pam3) (cyanophage Pam3); assay: SEC; His-gp24 co-expressed with untagged gp25 in E. coli, purified by Ni-NTA; Superdex 200 Increase 10/300 column; peaks analysed by SDS-PAGE

gp25 (tail fiber chaperone of myocyanophage Pam3), untagged, co-expressed with His-gp24 (natural protein)
stoichiometry N (gp25 per gp24 (3:3)) [1]: 1

His6-tagged full-length gp25 (tail fiber chaperone of myocyanophage Pam3), expressed alone (natural protein)
stoichiometry N [2]: 3

His6-tagged full-length gp24 (tail fiber protein of myocyanophage Pam3) (natural protein)
stoichiometry N [3]: 3
stoichiometry N [4]: 3
stoichiometry N [1]: 3
stoichiometry N [5]: 3
